Laboratory results: US20080199424A1

Target: MART-126-35/HLA-A2.1 tetramer (human)
Experiment: equilibrium tetramer staining at 0.1-25 nM, flow cytometry, Scatchard plot (KD=1/slope)

“MART-1 TCR native PBMC (T cells obtained by leukapheresis from the MART-1 TCR donor patient)” gave a Kd of 4 to 6 nM.
